In PMC3897609, “Heparanase Interacts with Resistin and Augments Its Activity” (PLoS ONE, 2014):

Target: T1, cMyc-tagged 65-kDa latent heparanase (human, UniProt Q9Y251 36-543)
T1 construct: heparanase, human, 65-kDa latent (unprocessed) form; also called cMyc-latent heparanase; latent cMyc-heparanase; source: medium conditioned by heparanase infected CHO cells, purified (heparin column)
T1 sequence (looked up): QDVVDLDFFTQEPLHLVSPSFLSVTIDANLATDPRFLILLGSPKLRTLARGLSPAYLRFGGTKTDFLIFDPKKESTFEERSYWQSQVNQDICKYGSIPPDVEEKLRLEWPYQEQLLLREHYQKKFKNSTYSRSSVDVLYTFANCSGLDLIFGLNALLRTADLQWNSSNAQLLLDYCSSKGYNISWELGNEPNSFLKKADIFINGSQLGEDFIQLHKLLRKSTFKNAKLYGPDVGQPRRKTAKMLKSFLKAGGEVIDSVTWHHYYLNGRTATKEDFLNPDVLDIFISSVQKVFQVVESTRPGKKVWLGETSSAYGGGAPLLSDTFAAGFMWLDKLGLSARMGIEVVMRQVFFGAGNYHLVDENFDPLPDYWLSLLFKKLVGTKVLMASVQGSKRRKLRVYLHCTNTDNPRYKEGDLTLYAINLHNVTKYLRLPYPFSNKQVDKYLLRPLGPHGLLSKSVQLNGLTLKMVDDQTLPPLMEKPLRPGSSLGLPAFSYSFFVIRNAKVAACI
Assay: ELISA; competition: cMyc latent heparanase as coating layer; analyte resistin (200 ng/ml) preincubated 30 min at RT with the competitor (active heparanase, or leptin as control); bound resistin detected by anti resistin antibodies
Details: both partners purified

B1: human recombinant resistin expressed in HEK 293 (natural protein, UniProt Q9HD89 19-108, looked up)
chain: KTLCSMEEAINERIQEVAGSLIFRAISSIGLECQSVTSRGDLATCPRGFAVTGCTCGSACGSWDVRAETTCHCQCAGMDWTGARCCRVQP
notes: resistin, human, recombinant; Runs as a 12 kDa band under reducing conditions; also called RETN; source: HEK 293, pure preparation, gift from Serono
B1: binds.
